Measured values taken from patent publication US10501493B2, “Broad spectrum antibiotics” (priority 2011, dated 2019).

Tests used:
[1] = biological target: T1, decanoyl-LSSPA Y^NO2 A ADK^abzPD (SEQ ID NO: 1)
T1 chain: LSSPAYAADKPD

[2] = biological target: T2, decanyol-LTPTAY^NO2 A ASKK^abzDD (SEQ ID NO: 2)
T2 chain: LTPTAYAASKKDD

B1: Full length His-tagged S. aureus SPase (protein)
chain: MKKELLEWIISIAVAFVILFIVGKFIVTSYTIKGESMDPTLKDGERVAVNIIGYKTGGLEKGNVVVFHANKNDDYVKRVIGVPGDKVEYKNDTLYVNGKKQDEPYLNYNLKHKQGDYITGTFQVKDLPNANPKSNVIPKGKYLVLGDNREVSKDSRAFGLIDEDQIVGKVSFRFWPFSEFKHNFNPENTKN
second order rate constant (Kcat/KM) of substrate cleavage [1]: 10^5 M^-1s^-1 | second order rate constant (Kcat/KM) of substrate cleavage [2]: 10^5 M^-1s^-1
